The Human Domainome abundance scans (Beltran et al. 2025)
± gives the uncertainty stated by the source.

B1: KAT8 regulatory NSL complex subunit 2, residues 28 to 91; numbered along this chain, Q9H9L4 (parent)
chain: CAFTHRPCSHPRLEGQEFCIKHILEDKNAPFKQCSYISTKNGKRCPNAAPKPEKKDGVSFCAEH

Variants of: B1
Assay: abundance fitness (aPCA) (normalised: wild type 0, dead -1); higher = more abundant; growth selection in yeast, the domain comes from the species named
Conditions: Homo sapiens
In the case of CAFFHRPCSHPRLEGQEFCIKHILEDKNAPFKQCSYISTKNGKRCPNAAPKPEKKDGVSFCAEH [T4F], the abundance fitness is reported as -0.181 ± 0.14. Work on CAFEHRPCSHPRLEGQEFCIKHILEDKNAPFKQCSYISTKNGKRCPNAAPKPEKKDGVSFCAEH [T4E] yielded an abundance fitness of -0.305 ± 0.076. With CAFIHRPCSHPRLEGQEFCIKHILEDKNAPFKQCSYISTKNGKRCPNAAPKPEKKDGVSFCAEH [T4I] the abundance fitness was -0.114 ± 0.1. Variant CAFRHRPCSHPRLEGQEFCIKHILEDKNAPFKQCSYISTKNGKRCPNAAPKPEKKDGVSFCAEH [T4R] has an abundance fitness of -0.399 ± 0.085. In the case of CAFDHRPCSHPRLEGQEFCIKHILEDKNAPFKQCSYISTKNGKRCPNAAPKPEKKDGVSFCAEH [T4D], the abundance fitness is reported as -0.163 ± 0.1. For CAFKHRPCSHPRLEGQEFCIKHILEDKNAPFKQCSYISTKNGKRCPNAAPKPEKKDGVSFCAEH [T4K], the abundance fitness was -0.378 ± 0.084. For CAFGHRPCSHPRLEGQEFCIKHILEDKNAPFKQCSYISTKNGKRCPNAAPKPEKKDGVSFCAEH [T4G], the abundance fitness was -0.394 ± 0.082. For CAFMHRPCSHPRLEGQEFCIKHILEDKNAPFKQCSYISTKNGKRCPNAAPKPEKKDGVSFCAEH [T4M], the abundance fitness was -0.788 ± 0.072. Variant CAFPHRPCSHPRLEGQEFCIKHILEDKNAPFKQCSYISTKNGKRCPNAAPKPEKKDGVSFCAEH [T4P] has an abundance fitness of -0.512 ± 0.083. CAFHHRPCSHPRLEGQEFCIKHILEDKNAPFKQCSYISTKNGKRCPNAAPKPEKKDGVSFCAEH [T4H] gave an abundance fitness of -0.128 ± 0.08. CAFYHRPCSHPRLEGQEFCIKHILEDKNAPFKQCSYISTKNGKRCPNAAPKPEKKDGVSFCAEH [T4Y] gave an abundance fitness of -0.15 ± 0.14. For CAFAHRPCSHPRLEGQEFCIKHILEDKNAPFKQCSYISTKNGKRCPNAAPKPEKKDGVSFCAEH [T4A], the abundance fitness was -0.404 ± 0.064. Work on CAFVHRPCSHPRLEGQEFCIKHILEDKNAPFKQCSYISTKNGKRCPNAAPKPEKKDGVSFCAEH [T4V] yielded an abundance fitness of -0.468 ± 0.049. Variant CAFLHRPCSHPRLEGQEFCIKHILEDKNAPFKQCSYISTKNGKRCPNAAPKPEKKDGVSFCAEH [T4L] has an abundance fitness of -0.53 ± 0.055. Work on CAFQHRPCSHPRLEGQEFCIKHILEDKNAPFKQCSYISTKNGKRCPNAAPKPEKKDGVSFCAEH [T4Q] yielded an abundance fitness of -0.494 ± 0.099. In the case of CAFSHRPCSHPRLEGQEFCIKHILEDKNAPFKQCSYISTKNGKRCPNAAPKPEKKDGVSFCAEH [T4S], the abundance fitness is reported as -0.193 ± 0.081. CAFWHRPCSHPRLEGQEFCIKHILEDKNAPFKQCSYISTKNGKRCPNAAPKPEKKDGVSFCAEH [T4W] showed an abundance fitness of -0.388 ± 0.1. CAFTWRPCSHPRLEGQEFCIKHILEDKNAPFKQCSYISTKNGKRCPNAAPKPEKKDGVSFCAEH [H5W] showed an abundance fitness of -0.193 ± 0.081. CAFTERPCSHPRLEGQEFCIKHILEDKNAPFKQCSYISTKNGKRCPNAAPKPEKKDGVSFCAEH [H5E] gave an abundance fitness of 0.017 ± 0.088. CAFTSRPCSHPRLEGQEFCIKHILEDKNAPFKQCSYISTKNGKRCPNAAPKPEKKDGVSFCAEH [H5S] showed an abundance fitness of -0.144 ± 0.068. In the case of CAFTKRPCSHPRLEGQEFCIKHILEDKNAPFKQCSYISTKNGKRCPNAAPKPEKKDGVSFCAEH [H5K], the abundance fitness is reported as -0.083 ± 0.14. Variant CAFTTRPCSHPRLEGQEFCIKHILEDKNAPFKQCSYISTKNGKRCPNAAPKPEKKDGVSFCAEH [H5T] has an abundance fitness of 0.034 ± 0.091. For CAFTGRPCSHPRLEGQEFCIKHILEDKNAPFKQCSYISTKNGKRCPNAAPKPEKKDGVSFCAEH [H5G], the abundance fitness was -0.017 ± 0.056. CAFTLRPCSHPRLEGQEFCIKHILEDKNAPFKQCSYISTKNGKRCPNAAPKPEKKDGVSFCAEH [H5L] showed an abundance fitness of -0.068 ± 0.054. For CAFTVRPCSHPRLEGQEFCIKHILEDKNAPFKQCSYISTKNGKRCPNAAPKPEKKDGVSFCAEH [H5V], the abundance fitness was -0.023 ± 0.059. Work on CAFTRRPCSHPRLEGQEFCIKHILEDKNAPFKQCSYISTKNGKRCPNAAPKPEKKDGVSFCAEH [H5R] yielded an abundance fitness of -0.01 ± 0.058. Variant CAFTMRPCSHPRLEGQEFCIKHILEDKNAPFKQCSYISTKNGKRCPNAAPKPEKKDGVSFCAEH [H5M] has an abundance fitness of -0.012 ± 0.081. For CAFTQRPCSHPRLEGQEFCIKHILEDKNAPFKQCSYISTKNGKRCPNAAPKPEKKDGVSFCAEH [H5Q], the abundance fitness was 0.011 ± 0.063. Variant CAFTNRPCSHPRLEGQEFCIKHILEDKNAPFKQCSYISTKNGKRCPNAAPKPEKKDGVSFCAEH [H5N] has an abundance fitness of -0.212 ± 0.12. Variant CAFTYRPCSHPRLEGQEFCIKHILEDKNAPFKQCSYISTKNGKRCPNAAPKPEKKDGVSFCAEH [H5Y] has an abundance fitness of -0.151 ± 0.093. In the case of CAFTFRPCSHPRLEGQEFCIKHILEDKNAPFKQCSYISTKNGKRCPNAAPKPEKKDGVSFCAEH [H5F], the abundance fitness is reported as -0.096 ± 0.066. CAFTARPCSHPRLEGQEFCIKHILEDKNAPFKQCSYISTKNGKRCPNAAPKPEKKDGVSFCAEH [H5A] gave an abundance fitness of -0.068 ± 0.045. Variant CAFTIRPCSHPRLEGQEFCIKHILEDKNAPFKQCSYISTKNGKRCPNAAPKPEKKDGVSFCAEH [H5I] has an abundance fitness of -0.084 ± 0.1. With CAFTCRPCSHPRLEGQEFCIKHILEDKNAPFKQCSYISTKNGKRCPNAAPKPEKKDGVSFCAEH [H5C] the abundance fitness was -0.112 ± 0.063. In the case of CAFTPRPCSHPRLEGQEFCIKHILEDKNAPFKQCSYISTKNGKRCPNAAPKPEKKDGVSFCAEH [H5P], the abundance fitness is reported as -0.146 ± 0.095. Work on TAFTHRPCSHPRLEGQEFCIKHILEDKNAPFKQCSYISTKNGKRCPNAAPKPEKKDGVSFCAEH [C1T] yielded an abundance fitness of -0.89 ± 0.29. Work on NAFTHRPCSHPRLEGQEFCIKHILEDKNAPFKQCSYISTKNGKRCPNAAPKPEKKDGVSFCAEH [C1N] yielded an abundance fitness of -0.615 ± 0.19. YAFTHRPCSHPRLEGQEFCIKHILEDKNAPFKQCSYISTKNGKRCPNAAPKPEKKDGVSFCAEH [C1Y] gave an abundance fitness of -0.802 ± 0.062. With WAFTHRPCSHPRLEGQEFCIKHILEDKNAPFKQCSYISTKNGKRCPNAAPKPEKKDGVSFCAEH [C1W] the abundance fitness was -0.837 ± 0.12. With SAFTHRPCSHPRLEGQEFCIKHILEDKNAPFKQCSYISTKNGKRCPNAAPKPEKKDGVSFCAEH [C1S] the abundance fitness was -0.358 ± 0.072. In the case of VAFTHRPCSHPRLEGQEFCIKHILEDKNAPFKQCSYISTKNGKRCPNAAPKPEKKDGVSFCAEH [C1V], the abundance fitness is reported as -0.865 ± 0.094. For RAFTHRPCSHPRLEGQEFCIKHILEDKNAPFKQCSYISTKNGKRCPNAAPKPEKKDGVSFCAEH [C1R], the abundance fitness was -0.545 ± 0.14.
